Test results reported in article PMC8927045, “MAP3K1 Variant Causes Hyperactivation of Wnt4/β-Catenin/FOXL2 Signaling Contributing to 46,XY Disorders/Differences of Sex Development” (Frontiers in Genetics, 2022).

Assays:
[1] = biological target: T1, RHOA-LgBiT-N (RhoA fused to LgBiT) (human (from the RefSeq entry NM_001664; …, UniProt P61586 1-193); test: split reporter (BiFC, NanoBiT); NanoBiT in HEK293T cells co-transfected with SmBiT and LgBiT fusion plasmids (500 ng DNA in all, 24-well plate); 24 h after transfection medium replaced by OPTI-MEM, substrate added, signal read for 30 min; negative control: SmBiT-MAP3K1 plasmid alone; conditions: partners not purified
T1 construct: RhoA, RHOA gene (NM_001664); On which end of RhoA the LgBiT stands is not clear from the two names used; also called LgBit-RhoA-N; source: HEK293T, transfected, in cells
T1 sequence (P61586 whole entry, the tested form may be a part): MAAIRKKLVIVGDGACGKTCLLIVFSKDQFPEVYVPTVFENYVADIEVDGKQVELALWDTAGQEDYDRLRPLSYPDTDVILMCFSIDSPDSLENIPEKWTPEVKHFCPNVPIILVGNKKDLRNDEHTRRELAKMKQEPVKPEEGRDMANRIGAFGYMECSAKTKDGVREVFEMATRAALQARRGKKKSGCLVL

[2] = biological target: T2, RHOA-3×Flag (human (from the RefSeq entry NM_001664; …, UniProt P61586 1-193); test: co-IP; HEK293T cells co-transfected with MAP3K1-3×HA and RHOA-3×Flag; 48 h after transfection lysed in modified RIPA buffer; anti-Flag or anti-HA magnetic beads overnight at 4°C; blot with anti-HA or anti-FLAG; ratio of Co-IP to IP band intensity; conditions: partners not purified
T2 construct: RhoA, RHOA gene (NM_001664) cloned into p3×Flag-CMV-14; also called RhoA-Flag; source: HEK293T, transfected, in lysate
T2 sequence (P61586 whole entry): as the sequence (P61586 whole entry, the tested form may be a part) above

B1: MAP3K1^R186G-SmBiT-C (R186G variant of MAP3K1 fused to SmBiT) (enzyme, human, UniProt Q13233 1-1512, looked up)
chain: MAAAAGNRASSSGFPGARATSPEAGGGGGALKASSAPAAAAGLLREAGSGGRERADWRRRQLRKVRSVELDQLPEQPLFLAASPPASSTSPSPEPADAAGSGTGFQPVAVPPPHGAASRGGAHLTESVAAPDSGASSPAAAEPGEKRAPAAEPSPAAAPAGREMENKETLKGLHKMDDRPEERMIGEKLKATCMPAWKHEWLERRNRRGPVVVKPIPVKGDGSEMNHLAAESPGEVQASAASPASKGRRSPSPGNSPSGRTVKSESPGVRRKRVSPVPFQSGRITPPRRAPSPDGFSPYSPEETNRRVNKVMRARLYLLQQIGPNSFLIGGDSPDNKYRVFIGPQNCSCARGTFCIHLLFVMLRVFQLEPSDPMLWRKTLKNFEVESLFQKYHSRRSSRIKAPSRNTIQKFVSRMSNSHTLSSSSTSTSSSENSIKDEEEQMCPICLLGMLDEESLTVCEDGCRNKLHHHCMSIWAEECRRNREPLICPLCRSKWRSHDFYSHELSSPVDSPSSLRAAQQQTVQQQPLAGSRRNQESNFNLTHYGTQQIPPAYKDLAEPWIQVFGMELVGCLFSRNWNVREMALRRLSHDVSGALLLANGESTGNSGGSSGSSPSGGATSGSSQTSISGDVVEACCSVLSMVCADPVYKVYVAALKTLRAMLVYTPCHSLAERIKLQRLLQPVVDTILVKCADANSRTSQLSISTLLELCKGQAGELAVGREILKAGSIGIGGVDYVLNCILGNQTESNNWQELLGRLCLIDRLLLEFPAEFYPHIVSTDVSQAEPVEIRYKKLLSLLTFALQSIDNSHSMVGKLSRRIYLSSARMVTTVPHVFSKLLEMLSVSSSTHFTRMRRRLMAIADEVEIAEAIQLGVEDTLDGQQDSFLQASVPNNYLETTENSSPECTVHLEKTGKGLCATKLSASSEDISERLASISVGPSSSTTTTTTTTEQPKPMVQTKGRPHSQCLNSSPLSHHSQLMFPALSTPSSSTPSVPAGTATDVSKHRLQGFIPCRIPSASPQTQRKFSLQFHRNCPENKDSDKLSPVFTQSRPLPSSNIHRPKPSRPTPGNTSKQGDPSKNSMTLDLNSSSKCDDSFGCSSNSSNAVIPSDETVFTPVEEKCRLDVNTELNSSIEDLLEASMPSSDTTVTFKSEVAVLSPEKAENDDTYKDDVNHNQKCKEKMEAEEEEALAIAMAMSASQDALPIVPQLQVENGEDIIIIQQDTPETLPGHTKAKQPYREDTEWLKGQQIGLGAFSSCYQAQDVGTGTLMAVKQVTYVRNTSSEQEEVVEALREEIRMMSHLNHPNIIRMLGATCEKSNYNLFIEWMAGGSVAHLLSKYGAFKESVVINYTEQLLRGLSYLHENQIIHRDVKGANLLIDSTGQRLRIADFGAAARLASKGTGAGEFQGQLLGTIAFMAPEVLRGQQYGRSCDVWSVGCAIIEMACAKPPWNAEKHSNHLALIFKIASATTAPSIPSHLSPGLRDVALRCLELQPQDRPPSRELLKHPVFRTTW
notes: Same construct as m1 with the patient variant; The end of the SmBiT is not clear; also called MAP3K1-Mut; p.R186G variant; source: HEK293T, transfected, in cells
[1]
  fold of the wild type's NanoBiT signal: 3.19 ± 0.18 fold of wild type

B2: MAP3K1^R186G-3×HA (enzyme, human, UniProt Q13233 1-1512, looked up)
chain: B1 chain
notes: human MAP3K1, full-length cDNA NM_005921.2 with the patients' variant c.556A>G, cloned into pcDNA3.1(+)-3×HA; Same construct as m7 with the patient variant; also called R186G variant; source: HEK293T, transfected, in lysate
[2]
  fold of the wild type's ratio of Co-IP to IP signal: 2.57 times wild type
